For assay [1], the target named is T1, recombinant soluble human epithelial glycoprotein-2 (M1-F259) with a six-histidine C-terminal tag (human, UniProt P16422 24-259).
T1 construct: range 1-259; In SPR it was amine-coupled to a CM-5 chip at 350 RU; also called recombinant soluble EGP-2-antigen; immobilized EGP-2
T1 sequence: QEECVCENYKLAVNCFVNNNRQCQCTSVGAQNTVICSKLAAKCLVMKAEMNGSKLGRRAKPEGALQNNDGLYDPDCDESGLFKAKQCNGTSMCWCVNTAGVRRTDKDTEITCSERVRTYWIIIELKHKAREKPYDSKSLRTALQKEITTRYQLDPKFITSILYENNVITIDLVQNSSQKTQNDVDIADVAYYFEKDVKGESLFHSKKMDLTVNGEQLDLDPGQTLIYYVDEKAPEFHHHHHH
Description: SPR (BIAcore), EGP-2 immobilized, 20 C. How it is done:
(§1) Kinetic rate constants were determined by surface plasmon resonance (SPR) with a BIAcore instrument. Recombinant soluble EGP-2-antigen was covalently coupled to a CM-5 sensor chip via free amine groups resulting, in a surface coverage of 350 resonance units. Single-chain Fv fragments were injected in increasing concentrations (0.1 nM 4.4 μM) at a flow rate of 30 μl/min of degassed PBS/0.005% Tween-20. Association and dissociation rate constants were calculated from the sensorgram the by a global curve fit using the BIAevaluation 3.0 software (Pharmacia).
(§2) To minimize rebinding effects which could lead to an underestimation of the off-rates, we used low density coating and high flow rate.

Assay [2] deals with T2, epithelial glycoprotein-2 (EGP-2) on SW2 human small cell lung carcinoma cells (human, UniProt P16422 24-314).
T2 construct: whole, on cells; also called GA733-2; Ep-CAM
T2 sequence (looked up): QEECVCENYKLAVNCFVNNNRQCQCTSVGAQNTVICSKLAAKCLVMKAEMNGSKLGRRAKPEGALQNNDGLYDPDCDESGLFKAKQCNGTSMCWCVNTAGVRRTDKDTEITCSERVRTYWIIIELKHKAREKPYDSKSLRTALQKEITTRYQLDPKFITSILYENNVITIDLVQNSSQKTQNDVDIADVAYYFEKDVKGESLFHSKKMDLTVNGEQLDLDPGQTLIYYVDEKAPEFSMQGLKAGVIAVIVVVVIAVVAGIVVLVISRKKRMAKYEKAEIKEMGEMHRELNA
Kind of assay: RIA, 99mTc-labelled scFv on SW2 cells, 4 C. How it is done:
The binding affinity of the ^99mTc labelled single-chain Fv fragments was determined on SW2 cells in a radioimmunoaffinity assay (RIA). SW2 (0.5×10⁶) cells were incubated with increasing amounts of single-chain Fv fragment (100 pM-30 nM) for 1 hour at 4° C. For estimation of nonspecific binding control samples of cells were pre-incubated with a 100-fold excess of unlabelled single-chain. Fv fragment for 1 h at 4° C. The bound fraction of single-chain Fv fragment was determined in a scintillation counter. Each obtained value represents the mean of two samples. Counts per minutes (cpm) were plotted against the nanomolar concentration of single-chain Fv fragment and fitted with the non-linear regression function.
High-affinity binding with long residual time on the specific target antigen is regarded as one of the most important characteristics of antibodies for tumor targeting. To ensure that binding affinity was conserved in the grafting experiment dissociation constants of the radiolabelled single-chain Fv fragment were determined on cells in a radioimmunoactrvity assay (RIA).

The target of assay [3] is T3, c-erbB2 (UniProt P04626 23-652, limits assumed).
T3 construct: also called p185Her2
Description: solid-phase RIA, 99mTc-labelled scFv on coated antigen. How it is done: (§3) In three washing steps cells were centrifuged at 1000 g for 5 min at 4° C., the supernatants discarded and the cells re-suspended in PBS/1% BSA. The remaining radioactivity was then measured in a scintillation counter. In a further binding experiment both-scFv fragments (50 ng) were incubated with different antigens, coated (500 ng/well) on a 96 well microtiter plate, to check for cross-reactivity. The wells were washed three times with PBS/1% BSA and the radioactivity was determined.

In assay [4] the target is T4, EGF-receptor (extracellular domain) (UniProt P00533 25-645).
T4 construct: extracellular domain
Described as above. As for the experimental part: as §3

The target in assay [5] is T2, epithelial glycoprotein-2 (EGP-2) on …. Description: competition RIA on SW2 cells against 99mTc-labelled 4D5MOC-A and 4D5MOC-B. As for the experimental part:
as §3

The target of assay [6] is T1, recombinant soluble human epithelial …. Kind of assay: SPR (BIAcore), EGP-2 immobilized, low density coating and high flow rate. As for the experimental part: as §1, §2

B1: anti-EGP-2 scFv fragment 4D5MOC-A (scFv)
scFv: DIQMTQSPSSLSASVGDRVTITCRSTKSLLHSNGITYLYWYQQKPGKAPKLLIYQMSNLASGVPSRFSSSGSGTDFTLTISSLQPEDFATYYCAQNLEIPRTFGQGTKVELKRTPSHNSHQVPSAGGPTANSGTSGSEVQLVESGGGLVQPGGSLRLSCAASGYTFTNYGMNWVRQAPGKGLEWMGWINTYTGESTYADSVKGRFTFSLDTSASAAYLQMNSLRAEDTAVYYCARFAIKGDYWGQGTLVTVSS
modifications: 99mTc-tricarbonyl complexed to the C-terminal His tag in the RIA and Lindmo assays; unlabelled in SPR. The tag itself is not in the letters.
notes: the others are not; Expected mass 29,855 Da; also called scFv 4D5MOC-A; graft variant 4D5MOC-A
In the case of B1, the Kd in assay [1] amounted to 3.5 nM; in assay [2], 3.6 nM.

B2: anti-EGP-2 scFv fragment 4D5MOC-B (scFv)
scFv: DIQMTQSPSSLSASVGDRVTITCRSTKSLLHSNGITYLYWYQQKPGKAPKLLIYQMSNLASGVPSRFSSSGSGTDFTLTISSLQPEDFATYYCAQNLEIPRTFGQGTKVELKRTPSHNSHQVPSAGGPTANSGTSGSEVQLVQSGPGLVQPGGSVRISCAASGYTFTNYGMNWVKQAPGKGLEWMGWINTYTGESTYADSFKGRFTFSLDTSASAAYLQINSLRAEDTAVYYCARFAIKGDYWGQGTLLTVSS
modifications: 99mTc-tricarbonyl bound to the C-terminal His tag in the RIA and Lindmo assays; unlabelled in SPR
notes: Expected mass 29,897 Da; also called scFv 4D5MOC-B
On to B2, for which the values for the equilibrium dissociation constant (Kd) in assay [1] and in assay [2] were 3.9 nM and 3.7 nM, respectively. Moreover, the koff in assay [1] is 0.000717 s⁻¹. In addition, the kon in assay [1] came to 184000 M⁻¹ s⁻¹. Moreover, the binding result in assay [3] and in assay [4] was “no binding (tested: 50 ng scFv on 500 ng/well antigen)” throughout.

B3: murine monoclonal antibody MOC31 (antibody, V domains shown)
VH: QVQLQQSGPELKKPGETVKISCKASGYTFTNYGMNWVKQAPGRGLKWMGWINTYTGESTYADDFKGRFAFSLETSASAAYLQINNLKNEDTATYFCARFAIKGDYWGQGTTLTVSS
VL: DIVMTQSAFSNPVTLGTSASISCRSTKSLLHSNGITYLYWYLQKPGQSPQLLIYQMSNLASGVPDRFSSSGSGTDFTLRISRVEAEDVGVYYCAQNLEIPRTFGGGTKLEIK
notes: Whole murine antibody from hybridoma MOC31; also called mAb MOC31
As for B3, in assay [5], the binding result is reported as “binds”.

B4: anti-EGP-2 scFv fragment obtained from the murine hybridoma MOC31 (scFv)
scFv: DIVMTQSAFSNPVTLGTSASISCRSTKSLLHSNGITYLYWYLQKPGQSPQLLIYQMSNLASGVPDRFSSSGSGTDFTLRISRVEAEDVGVYYCAQNLEIPRTFGGGTKLEIKRTPSHNSHQVPSAGGPTANSGTSGSQVQLQQSGPELKKPGETVKISCKASGYTFTNYGMNWVKQAPGRGLKWMGWINTYTGESTYADDFKGRFAFSLETSASAAYLQINNLKNEDTATYFCARFAIKGDYWGQGTTLTVSS
modifications: 99mTc-tricarbonyl bound to the C-terminal His tag in the RIA and Lindmo assays; unlabelled in SPR
notes: Murine scFv expressed from vector pAK400 in E. coli periplasm and purified by IMAC through its His tag; also called scFv MOC31; MOC31 scFv
As for B4, in assay [1], the Kd is 3 nM, the koff is 0.0003 s⁻¹ and the kon was determined as 99000 M⁻¹ s⁻¹. Besides, in assay [2], the Kd came to 10.8 nM. Also, in assay [6], the half-life of binding was around 38 min.

(Values after patent US20060159683A1 (UNIVERSITY OF ZURICH, published 2006).)
